Article PMC4210639 (Neuron, 2014)

Target: T1, FLRT3^LRR (leucine-rich repeat domain of mouse FLRT3) (mouse, UniProt Q8BGT1 29-359)
T1 sequence: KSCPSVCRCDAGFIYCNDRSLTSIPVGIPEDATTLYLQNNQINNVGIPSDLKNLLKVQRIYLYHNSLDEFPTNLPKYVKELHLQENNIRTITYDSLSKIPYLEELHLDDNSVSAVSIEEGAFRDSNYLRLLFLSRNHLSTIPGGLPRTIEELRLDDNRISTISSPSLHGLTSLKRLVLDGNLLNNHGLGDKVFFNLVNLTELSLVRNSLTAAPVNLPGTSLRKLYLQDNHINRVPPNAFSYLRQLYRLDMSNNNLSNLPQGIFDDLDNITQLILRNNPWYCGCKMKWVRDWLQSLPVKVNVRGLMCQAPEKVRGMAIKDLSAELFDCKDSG
Assay: SPR

- binding result: binds
B1: Unc5A^ecto (human Unc5A ectodomain) (domain or fragment)
chain: not shown
